The target of this test is T1, biotinylated human soluble TWEAK (human, UniProt O43508, biotin (site not stated)).
T1 construct: TWEAK, human, soluble form; Captured on a streptavidin (SA) sensor by its biotin; also called biotinylated TWEAK ligand
Kind of test: SPR; Biacore 2000, SA sensor, biotinylated human soluble TWEAK coupled at 150 RU; antibody injected at 100 nM, 2 min association, 5 min dissociation at 25 C in HBS-ET (10 mM HEPES pH 7.4, 150 mM NaCl, 1 mM EDTA, 0.05% Tween 20); half-life from kd of the interval 240-300 s. The conditions noted are these: both partners purified. For orientation: Surface plasmon resonance follows binding to a sensor surface in real time, without labels.

T1 sequence (O43508 94-249): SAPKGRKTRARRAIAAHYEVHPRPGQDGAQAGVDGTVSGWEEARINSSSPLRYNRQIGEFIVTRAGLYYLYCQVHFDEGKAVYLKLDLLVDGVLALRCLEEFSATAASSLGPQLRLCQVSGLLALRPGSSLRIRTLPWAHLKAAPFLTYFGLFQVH

B1: chi TW-305 (chimeric rabbit anti-TWEAK monoclonal antibody) (antibody, V domains shown)
VH: QEQLVESGGGLVQPGGSLTLSCKASGFDFSTYYMSWVRQAPGKGLEWIGTVYVRQGTTYYASWLNGRFTISSDNAQNTVDLKMNSLTAADTATYFCAKGGYNYDDAFVIWGPGTLVTVSF
VL: AIEMTQTPFSVSAAVGGTVTINCQASQNIYSNLAWYQQKPGQPPKLLMYTASYLASGVPSRFKGSGSRTEYTLTISGVQCADAATYYCQTAYYNSRPDTVAFGGGTEVVVK
notes: Fab part as the heavy chain of m5 (PDB 4HT1); as the light chain of m5 (PDB 4HT1); Whole antibody from which the Fab m5 was cut; source: produced by standard procedures
Regarding B1, the “t/2 diss (half-life of immunocomplex)” value came out at 2.45 h.

These data come from PMC3648529 (PLoS ONE, 2013).
